Each binder was assayed against insulin receptor (insulin receptor tyrosine kinase assay) (assay: cell-based or functional assay).

Row | activity of insulin receptor tyrosine kinase | Binder
1 | 66 U/ml | RYKYQCWYI [IRBP-9D (SEQ ID NO:193)]
2 | 40.3 U/ml | RYKYQWFYI [IRBP-9A (SEQ ID NO:190)]
3 | 44.2 U/ml | RYKYQWWYI [IRBP-9C (SEQ ID NO:192)]
4 | 79.8 U/ml | RYKYQCFYI [IRBP-9B (SEQ ID NO:191)]

— US20130310313A1
